30 sequences from the nanobody polyreactivity screen of Harvey et al. (2022) can be followed below.

The data set is described as follows: yeast display, Sf9 membrane polyspecificity reagent, FACS + sequencing; frameworks hold sequencing errors. The essentials: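 Genes from sorted yeast were amplified by colony PCR, read by MiSeq 2 × 250 sequencing and filtered on CDR length. These cells carried a synthetic nanobody library in Saccharomyces cerevisiae BJ5465 and were sorted by FACS into low and high (top ~1%) gates on anti-HA and streptavidin fluorescence. Polyreactivity is labelled according to the gate of origin.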
On to “QVQLVESGGGLVQAGGTLRLSCDPSGRTFYYYAMGWYRQAPGKERELVATIRSTGSTNYADSVKGRFTISRDNAKNTVYLKMNSLKPEDTAVYYCAAKPLQGVRRVEYWGQGTQVTVSS”, for which the “polyreactivity (PSR sort gate)” value was “high polyreactivity”.

Turning to “QVQLVESGGGLVQAGGTLRLSCSASGSTFAINAMGWYRQPPGKERELVATITSGSNTNNADSVKGRFTISRDNAKNTVDLQMNSLNPEDTAVYYCAAAFGYRFHYGYFYIYDYWGQGTQVTVSS”, the “polyreactivity (PSR sort gate)” value is reported as “high polyreactivity”.

“QVQLVESGGGLVQAGGTLSLSCAASGRTFVSYTMGWYRQAPGKERELVAAINYSVASTNYADSVKGRFTISRDNAKNSVYLQMNSLKPEDTAVYYCNRASAVWGQGTQVTVSS”: the “polyreactivity (PSR sort gate)” value is “low polyreactivity”.

Take “QVQLVESGGGLVQAGRSLRLICAASGFTFYSYAMGWYRQAPGKERELVANITIGGSTYADSVKGRFTISRDNAKNTVYLQMNSLKPEDTAVYYCARGYRVVGDPLYGDYDYWGQGTQVTVSS”: the “polyreactivity (PSR sort gate)” value was “low polyreactivity”.

For the sequence “QVQLVESGGGLVQAGRSLRLNCAASGSIFYYYAMGWYRPAPGKERELVAAISRNGGSTSYADSVKGRFTISRDNAKNTVYLQMNSLKPEDTAVYYCNTYGGYKYDYWGQGTQVTVSS”, the “polyreactivity (PSR sort gate)” value is on record as “low polyreactivity”.

With “QVQLVESGGGLVQAGRSLRLSCAASGFIYPYNALGWYRQAPGKERELVAGITWRGASTYYADSVKGRFTISRDNAKNSVYLQMNRLKPEDTAVDYCAAAYRRVTTKTFKLDYWGQGTQVTVSS”, the “polyreactivity (PSR sort gate)” value is “high polyreactivity”.

“QVQLVESGGGLVQAGRSLRLSCAASGITFDDYDMGCYRQAPGKEREFVAAISFSGSSTYYADSVKGRFTISRDNAKNTVYLLMNSLKPEDTAVYYCNADYVYSGCLYYGKDYWFDYWGHGTQVTVSS”: the “polyreactivity (PSR sort gate)” value is listed as “low polyreactivity”.

Consider “QVQLVESGGGLVQAGRSLRLSCAASGITFQYYAMGGYRQAPGKERELVAAISSGGSTYYADSVKGRFTISRDNAKNTVYLQMNSLKPEDTAVYYCAAKRVFFGLNYDYWGQGTQVTVSS”, for which the “polyreactivity (PSR sort gate)” value is on record as “high polyreactivity”.

Turning to “QVQLVESGGGLVQAGRSLRLSCAASGITFYKNAMGWYRQAPGKERELVAAISSGGATTYADSVKGRFTISRDNAKNTVYLQMNSLKPEDSAVYYCAAVTRDYRNERRRQRYFYWGQGTQVTVSS”, the “polyreactivity (PSR sort gate)” value is listed as “high polyreactivity”.

As to “QVQLVESGGGLVQAGRSLRLSCAASGLTFGQYAMGWYRQAPGIERELVAAMNWSGDGTYYADSVKGRFTISRDNAKNTVYLQMKSLKPEDTAVYYCNAGGRRYYYIGYDYWGQGTQLTVSS”, the “polyreactivity (PSR sort gate)” value was “low polyreactivity”.

In the case of “QVQLVESGGGLVQAGRSLRLSCAASGLTFRVYPMGWYRQAPGKDRELVAAITGGGGSTYADSVKGRFTISRDNAKNTVYLQMYSLKPEDTAVSYCNKKGYYYKFDYWGQGTQVTVSS”, the “polyreactivity (PSR sort gate)” value is “low polyreactivity”.

As for “QVQLVESGGGLVQAGRSLRLSCAASGRIFNYYSMGWYRQAPGKERELVAAISSGGSTYYADSVKGRFTISRDYAKNTVYLQMNSLKPEDTAVYYCAAAYGDYGYWGQGTLVTVSS”, the “polyreactivity (PSR sort gate)” value is “high polyreactivity”.

“QVQLVESGGGLVQAGRSLRLSCAASGRIFRGYAMGWYRPAPGIERELVAAISWSGGSTNYADSVKGRFTISRDNAKNSVYLQMNSLKPEDTEVYYCAARAYRVANAGYTYWGQGTQLTVSS”: the “polyreactivity (PSR sort gate)” value is recorded as “high polyreactivity”.

As for “QVQLVESGGGLVQAGRSLRLSCAASGRIFVPYVMGWYRQAPGKERELVASISDSDTSTYYADSVKGRFTISRDNAKNTVYVQMNSLKPEDTAVYYCNVDYWGQGTQVTVSS”, the “polyreactivity (PSR sort gate)” value was “low polyreactivity”.

As to “QVQLVESGGGLVQAGRSLRLSCAASGRISTRYAMGWYRQAPGKERELVAAITIGTDTTYADSVKGRFTISRDNAKNTVYLQMNTLKPEDTAVYYCAAERYILARFEYWGQGTQVTVSS”, the “polyreactivity (PSR sort gate)” value is on record as “low polyreactivity”.

Regarding “QVQLVESGGGLVQAGRSLRLSCAASGRTSAYYAMGWYRQPPGKERELVAGITRGGRTNYADSVKGRFTISRDNAKNTVYLQLNSLKPEDTAVYYCAAKYVYYLNSRTSGYWGQGSQVTVSS”, the “polyreactivity (PSR sort gate)” value was “high polyreactivity”.

With “QVQLVESGGGLVQAGRSLRLSCAASGSIFAWYGMGWYRQAPGKERELFAAISTDGSTNYADSVKGRFTISRDNAKNSVYLQMISLKREDTAVYYCAKKSSLYYPERFDYWGQGTQGTVSS”, the “polyreactivity (PSR sort gate)” value is “low polyreactivity”.

“QVQLVESGGGLVQAGRSLRLSCAASGSTFKVYAMGWYRQAPGKERELVAAISASDGSTYYPDSVKGRFTISRDNAKKTVYVQMYRLKPEDTAVYYFAAVLYSDKATYDYWGQGTQVTVSS”: the “polyreactivity (PSR sort gate)” value is listed as “low polyreactivity”.

In the case of “QVQLVESGGGLVQAGRSLRLSCAASGSTFPVNTMGWYRQAPGKDRELVAAITKNGANTYYADSVKGRFTISRDNAKNTVYLQMNSLKPEDTAVYYCAARYVYGKSYSRWLVELDYWGQGTQVTVSS”, the “polyreactivity (PSR sort gate)” value is given as “low polyreactivity”.

For the sequence “QVQLVESGGGLVQAGRSLRLSCAASGSTFYAYTMGWYRKAPGKERELVAGISRRGGTTYYADSVKGRFTISRDNAKNTVYLQMNSLKPEDTAVYHCATRSWELGDYWGQGTQVTVSS”, the “polyreactivity (PSR sort gate)” value was “low polyreactivity”.

On to “QVQLVESGGGLVQAGRSLRLSCAASGSTFYGYAMGWYRQPPGKERELVAAITSSGGSTYYADSVKGRFTISRDNAKITVYVQLNSLKPEDTAVYYCNAKRAPWGTLYNYWGQGTQVTVSS”, for which the “polyreactivity (PSR sort gate)” value is recorded as “high polyreactivity”.

For the sequence “QVQLVESGGGLVQAGRSLRLSCAASGSTILYYAMGWYRQAHGKERELVARITTRGSRTYYADSVKGRFTISRDNAKNTVYLQMNSLKPEDTAVYYCNKVRPGYGVTYLVGYWGQGTQVTVSS”, the “polyreactivity (PSR sort gate)” value was “high polyreactivity”.

“QVQLVESGGGLVQAGRSLRLSCAASGSTLLWNAMGWYRQAPGKERELVAVISWSGGSTYYGDSVKGRFTISRDNAKNTVYLQMNSLKPEDTAVYYCAHDYDGYVWDTEYDYWGQGTQVTVSS”: the “polyreactivity (PSR sort gate)” value was “low polyreactivity”.

Turning to “QVQLVESGGGLVQAGRSLRLSCAASGSTYAKYAMGWYRQAPGKEREVVAVISRTGTITRYADSEKGRFTISRDNAKNTVYLQMNSLKPEDTAVYYCAATIRAYNQHGFLYPYYYWGQGNQVTVSS”, the “polyreactivity (PSR sort gate)” value is listed as “high polyreactivity”.

Regarding “QVQLVESGGGLVQAGRSLRLSCAASGYIFDTNAMGWYRQAPGKERELVAAITKSGGSTYYADSVKGRFTISRDNAKNTVYLHMNSLKPEDTAVYYCAARGTSKRWSLYDYWGQGTQVTVSS”, the “polyreactivity (PSR sort gate)” value is given as “low polyreactivity”.

On to “QVQLVESGGGLVQAGRSLRLSCAAYGYTFEFYAMGWYRQAPGKEREFVAGINSSGVTTYYADSVKGRFTIARDNAKYTVYLQMNSLKPVYSAVYYCAATDVVYTWFFLVYIPYDYWGQGTQVTVSS”, for which the “polyreactivity (PSR sort gate)” value is given as “low polyreactivity”.

In the case of “QVQLVESGGGLVQAGRTLRLSCAASGNIFDLNAMGWYRPAPGKERELVAAIDRGGGSTYYADSVKGRFTISRDNATNTVYLHMNSLKTEDTAVYYCSAVDQESNPAGGYWGQGSQVTVSS”, the “polyreactivity (PSR sort gate)” value is on record as “low polyreactivity”.

“QVQLVESGGGLVQAGSSLRLSCAASGRTFTGNAMGRYRQAPGKERELVADISSDGSTNYADSVKGRFTISRDNAKNTVYLQMNSLKPEDTAVYYCAADPFWTYYIDYDYWGQGTQVTVSS”: the “polyreactivity (PSR sort gate)” value is “low polyreactivity”.

As to “QVQLVESGGGLVQAGSSLRLSCAASGSTLRTNAMGWYRQAPGKEREFVADISKRGGRTYYADSVKGRFTISRDNAKNTVYLQMNSLKPEDTAVYYCAKLVSLAGRIYGYWGQGTQVTVSS”, the “polyreactivity (PSR sort gate)” value was “high polyreactivity”.

Take “QVQLVESGGGLVQAGVILRLSCAASGLIFGLYAMGWYRQAPGKERELVAAISYRTDSTYADSVKGRFTISRDNAKNTVYLQMNSLKPEDTAVYYCAADLRVSVRYYYWGQGTQVTVSS”: the “polyreactivity (PSR sort gate)” value is on record as “low polyreactivity”.
